Measurements as given in patent US20240018260A1 (AMUNIX PHARMACEUTICALS, published 2024).

T1: human EpCAM on EpCAM positive human carcinoma cells (SW480, SK-OV-3) (human, UniProt P16422 24-314)
T1 sequence (looked up): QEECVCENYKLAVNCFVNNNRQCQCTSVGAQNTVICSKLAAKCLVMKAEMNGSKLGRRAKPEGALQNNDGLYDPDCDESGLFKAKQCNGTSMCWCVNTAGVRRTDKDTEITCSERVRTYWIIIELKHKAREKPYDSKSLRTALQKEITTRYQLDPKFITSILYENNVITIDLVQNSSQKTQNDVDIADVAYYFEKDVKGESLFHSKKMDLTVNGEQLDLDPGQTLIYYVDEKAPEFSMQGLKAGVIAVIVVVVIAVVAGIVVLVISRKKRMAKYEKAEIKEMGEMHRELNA

B1: AC1278 His(8)-aEpCAM-aCD3-BSRS1-XTEN_AE864, protease-untreated (intact) anti-EpCAM×anti-CD3 ProTIA (bispecific antibody)
chain: HHHHHHHHELVMTQSPSSLTVTAGEKVTMSCKSSQSLLNSGNQKNYLTWYQQKPGQPPKLLIYWASTRESGVPDRFTGSGSGTDFTLTISSVQAEDLAVYYCQNDYSYPLTFGAGTKLEIKGGGGSGGGGSGGGGSEVQLLEQSGAELVRPGTSVKISCKASGYAFTNYWLGWVKQRPGHGLEWIGDIFPGSGNIHYNEKFKGKATLTADKSSSTAYMQLSSLTFEDSAVYFCARLRNWDEPMDYWGQGTTVTVSSGGGGSDVQLVQSGAEVKKPGASVKVSCKASGYTFTRYTMHWVRQAPGQGLEWIGYINPSRGYTNYADSVKGRFTITTDKSTSTAYMELSSLRSEDTATYYCARYYDDHYCLDYWGQGTTVTVSSGEGTSTGSGGSGGSGGADDIVLTQSPATLSLSPGERATLSCRASQSVSYMNWYQQKPGKAPKRWIYDTSKVASGVPARFSGSGSGTDYSLTINSLEAEDAATYYCQQWSSNPLTFGGGTKVEIKGTAEAASASGLSGRSDNHSPLGLAGSPGSPAGSPTSTEEGTSESATPESGPGTSTEPSEGSAPGSPAGSPTSTEEGTSTEPSEGSAPGTSTEPSEGSAPGTSESATPESGPGSEPATSGSETPGSEPATSGSETPGSPAGSPTSTEEGTSESATPESGPGTSTEPSEGSAPGTSTEPSEGSAPGSPAGSPTSTEEGTSTEPSEGSAPGTSTEPSEGSAPGTSESATPESGPGTSTEPSEGSAPGTSESATPESGPGSEPATSGSETPGTSTEPSEGSAPGTSTEPSEGSAPGTSESATPESGPGTSESATPESGPGSPAGSPTSTEEGTSESATPESGPGSEPATSGSETPGTSESATPESGPGTSTEPSEGSAPGTSTEPSEGSAPGTSTEPSEGSAPGTSTEPSEGSAPGTSTEPSEGSAPGTSTEPSEGSAPGSPAGSPTSTEEGTSTEPSEGSAPGTSESATPESGPGSEPATSGSETPGTSESATPESGPGSEPATSGSETPGTSESATPESGPGTSTEPSEGSAPGTSESATPESGPGSPAGSPTSTEEGSPAGSPTSTEEGSPAGSPTSTEEGTSESATPESGPGTSTEPSEGSAPGTSESATPESGPGSEPATSGSETPGTSESATPESGPGSEPATSGSETPGTSESATPESGPGTSTEPSEGSAPGSPAGSPTSTEEGTSESATPESGPGSEPATSGSETPGTSESATPESGPGSPAGSPTSTEEGSPAGSPTSTEEGTSTEPSEGSAPGTSESATPESGPGTSESATPESGPGTSESATPESGPGSEPATSGSETPGSEPATSGSETPGSPAGSPTSTEEGTSTEPSEGSAPGTSTEPSEGSAPGSEPATSGSETPGTSESATPESGPGTSTEPSEGSAPG
B2: Protease-treated (MMP-9 cleaved) AC1278, His(8)-aEpCAM-aCD3 cleaved fragment (bispecific antibody)
chain: HHHHHHHHELVMTQSPSSLTVTAGEKVTMSCKSSQSLLNSGNQKNYLTWYQQKPGQPPKLLIYWASTRESGVPDRFTGSGSGTDFTLTISSVQAEDLAVYYCQNDYSYPLTFGAGTKLEIKGGGGSGGGGSGGGGSEVQLLEQSGAELVRPGTSVKISCKASGYAFTNYWLGWVKQRPGHGLEWIGDIFPGSGNIHYNEKFKGKATLTADKSSSTAYMQLSSLTFEDSAVYFCARLRNWDEPMDYWGQGTTVTVSSGGGGSDVQLVQSGAEVKKPGASVKVSCKASGYTFTRYTMHWVRQAPGQGLEWIGYINPSRGYTNYADSVKGRFTITTDKSTSTAYMELSSLRSEDTATYYCARYYDDHYCLDYWGQGTTVTVSSGEGTSTGSGGSGGSGGADDIVLTQSPATLSLSPGERATLSCRASQSVSYMNWYQQKPGKAPKRWIYDTSKVASGVPARFSGSGSGTDYSLTINSLEAEDAATYYCQQWSSNPLTFGGGTKVEIKGTAEAASASGLSGRSDNHSPLG
B3: AC1357, non-cleavable anti-EpCAM×anti-CD3 ProTIA without the release segment (bispecific antibody)
chain: HHHHHHHHELVMTQSPSSLTVTAGEKVTMSCKSSQSLLNSGNQKNYLTWYQQKPGQPPKLLIYWASTRESGVPDRFTGSGSGTDFTLTISSVQAEDLAVYYCQNDYSYPLTFGAGTKLEIKGGGGSGGGGSGGGGSEVQLLEQSGAELVRPGTSVKISCKASGYAFTNYWLGWVKQRPGHGLEWIGDIFPGSGNIHYNEKFKGKATLTADKSSSTAYMQLSSLTFEDSAVYFCARLRNWDEPMDYWGQGTTVTVSSGGGGSDVQLVQSGAEVKKPGASVKVSCKASGYTFTRYTMHWVRQAPGQGLEWIGYINPSRGYTNYADSVKGRFTITTDKSTSTAYMELSSLRSEDTATYYCARYYDDHYCLDYWGQGTTVTVSSGEGTSTGSGGSGGSGGADDIVLTQSPATLSLSPGERATLSCRASQSVSYMNWYQQKPGKAPKRWIYDTSKVASGVPARFSGSGSGTDYSLTINSLEAEDAATYYCQQWSSNPLTFGGGTKVEIKGSPGSPAGSPTSTEEGTSESATPESGPGTSTEPSEGSAPGSPAGSPTSTEEGTSTEPSEGSAPGTSTEPSEGSAPGTSESATPESGPGSEPATSGSETPGSEPATSGSETPGSPAGSPTSTEEGTSESATPESGPGTSTEPSEGSAPGTSTEPSEGSAPGSPAGSPTSTEEGTSTEPSEGSAPGTSTEPSEGSAPGTSESATPESGPGTSTEPSEGSAPGTSESATPESGPGSEPATSGSETPGTSTEPSEGSAPGTSTEPSEGSAPGTSESATPESGPGTSESATPESGPGSPAGSPTSTEEGTSESATPESGPGSEPATSGSETPGTSESATPESGPGTSTEPSEGSAPGTSTEPSEGSAPGTSTEPSEGSAPGTSTEPSEGSAPGTSTEPSEGSAPGTSTEPSEGSAPGSPAGSPTSTEEGTSTEPSEGSAPGTSESATPESGPGSEPATSGSETPGTSESATPESGPGSEPATSGSETPGTSESATPESGPGTSTEPSEGSAPGTSESATPESGPGSPAGSPTSTEEGSPAGSPTSTEEGSPAGSPTSTEEGTSESATPESGPGTSTEPSEGSAPGTSESATPESGPGSEPATSGSETPGTSESATPESGPGSEPATSGSETPGTSESATPESGPGTSTEPSEGSAPGSPAGSPTSTEEGTSESATPESGPGSEPATSGSETPGTSESATPESGPGSPAGSPTSTEEGSPAGSPTSTEEGTSTEPSEGSAPGTSESATPESGPGTSESATPESGPGTSESATPESGPGSEPATSGSETPGSEPATSGSETPGSPAGSPTSTEEGTSTEPSEGSAPGTSTEPSEGSAPGSEPATSGSETPGTSESATPESGPGTSTEPSEGSAPG

Biological target: T1, human EpCAM on EpCAM positive human …
Test: cell-based or functional assay

| Binder | EC50, LDH release cytotoxicity, PBMC:SW480 5:1 [nM] |
| --- | --- |
| B1 | 0.288 |
| B2 | 0.0089 |
| B3 | 3.3 |
